The source of these data is patent US20150320860A1 (published 2015).

Assay [1] addresses T1, Aβ1-42 monomer (UniProt P05067 672-713).
T1 construct: domain: Aβ1-42
Kind of assay: ELISA; IgG2.

Assay [2] concerns the target T2, Aβ-derived diffusible ligands (ADDLs), soluble oligomers of synthetic Aβ1-42 (UniProt P05067 672-713).
T2 construct: domain: Aβ1-42; number of copies is not fixed; also called synthetic ADDLs; Aβ oligomers
Kind of assay: ELISA; IgG2.

The target in assay [3] is T3, biotinylated ADDLs (bADDLs) (UniProt P05067 672-713, N-terminal biotin).
T3 construct: domain: Aβ1-42; Oligomer mixture; copies not fixed
Kind of assay: cell-based assay: antibody pre-incubated with 500 nM bADDLs in the presence of excess Aβ monomer, block of bADDL binding to primary neurons. Here is the method: (§1) As a control, the same concentration of heat-denatured antibody (98° C. for […]) was mixed with bADDLs. The antibody-bADDL mixtures were incubated in siliconized microcentrifuge tubes (Fischer Scientific, Pittsburgh, Pa.) at 37° C. for one hour with constant end-to-end rotation at a low speed. The mixtures were then applied to primary hippocampal and/or cortical cultures and incubated at 37° C. for one hour. The incubation was terminated by removing the culture medium. Cells were subjected to fixation and post-fixation treatments. Cells were then incubated with streptavidin conjugated with alkaline phosphate (AP) at 4° C. overnight, washed five times with PBS and reacted with the TROPIX CDP-Star chemiluminescent substrate (Life Technologies, Carlsbad, Calif.) at room temperature for 30 minutes. The bADDL binding intensity was measured and recorded with an ENVISION microplate reader (PerkinElmer, Waltham, Mass.).

In assay [4] the target is T2, Aβ-derived diffusible ligands (ADDLs), …. Kind of assay: competitive ELISA. How it is done:
The plates were incubated for one and half hours at room temperature. Both detection of residual antibody binding and the EC₅₀ calculations were determined as in the one-sided ELISA assay.

Assay [5] shares this target. Kind of assay: KINEXA; constant for Aβ1-40 over constant for ADDLs.
Assay [6] has the same target. As to the kind of experiment: one-sided ELISA, Aβ oligomers coated at 50 pmol/well (FIG. 7A). Here is the method:
(§2) EC₅₀ represents the half-maximal total Aβ oligomer binding. […] Next day, plates were washed five times with PBS+0.05% TWEEN 20 and blocked overnight with casein blocking buffer (Thermo Scientific, Waltham, Mass.) and 0.05% TWEEN 20. […] After two hours at room temperature incubation, the plates were washed and alkaline phosphatase-conjugated anti-human IgG (ThermoScientific, Waltham, Mass.) was added at 0.08 μg/ml. After incubation for 45 minutes at room temperature, the plates were washed and TROPIX CDP star (Applied Biosystems, Foster City, Calif.) was added. Luminescence was detected after […] on an ENVISION plate reader (PerkinElmer, Waltham, Mass.). Curve fits were completed using GraphPad Prism (GraphPad Software, Inc., San Diego, Calif.) software.

For assay [7] the target is unchanged. As to the kind of experiment: three-pronged sandwich ELISA (Aβ forms captured by polyclonal M90/1), single antibody concentration; signal on ADDLs over signal on monomer Aβ. Here is the method: (§3) ELISA. […] Monoclonal antibodies diluted in BSA/TBS were incubated for 90 minutes at room temperature and detected with a VECTASTAIN® ABC kit to mouse IgG. The HRP label was visualized with BIO-RAD peroxidase substrate and read at 405 nm on a Dynex MRX-TC microplate reader.

In assay [8] the target is T4, Aβ1-40 monomer (UniProt P05067 672-711).
T4 construct: domain: Aβ1-40; also called Aβ40; monomer Aβ (Aβ1-40)
As to the kind of experiment: ELISA on coated antigen, chemiluminescence; antibody stored at 4°, 1 month. Here is the method:
(§4) High protein binding plates (Costar, Corning, Lowell, Mass.), were coated with target ligand in PBS overnight at 4° C. […] One the next day, plates were washed five times with PBS+0.05% TWEEN 20 (Sigma Aldrich, St. Louis, Mo.) and blocked overnight with casein blocking buffer (Thermo Scientific, Waltham, Mass.) and 0.05% TWEEN 20. […] After 2 hours at room temperature incubation, the plates were washed and alkaline phosphatase-conjugated anti-human IgG (ThermoScientific, Waltham, Mass.) was added at 0.08 μg/ml. After 45 minutes at room temperature incubation, the plates were washed and TROPIX CDP-Star chemiluminescent substrate (LIFE TECHNOLOGIES, Carlsbad, Calif.) was added. Luminescence was detected after 30 minutes on an ENVISION microplate reader (PerkinElmer, Waltham, Mass.). Curve fits were completed using […] PRISM software (GraphPad Software, Inc., San Diego, Calif.).

The target of assay [9] is T3, biotinylated ADDLs (bADDLs). Described as above. Here is the method:
as §4

Assay [10] addresses T4, Aβ1-40 monomer. As to the kind of experiment: BIACORE (SPR).
Assay [11] concerns the target T2, Aβ-derived diffusible ligands (ADDLs), …. Kind of assay: BIACORE (SPR).
Assay [12] deals with T4, Aβ1-40 monomer. As to the kind of experiment: ELISA on coated antigen, chemiluminescence; antibody stored at 40°, 1 month. How it is done: as §4
Assay [13] deals with T3, biotinylated ADDLs (bADDLs). Described as above. Here is the method:
as §4

Assay [14] concerns the target T2, Aβ-derived diffusible ligands (ADDLs), …. Kind of assay: BIACORE (SPR); affinity for Aβ1-40 over affinity for ADDLs.
The target of assay [15] is T4, Aβ1-40 monomer. As to the kind of experiment: ELISA on coated antigen, chemiluminescence; antibody at 0 timepoint. How it is done:
as §4

Assay [16] addresses T3, biotinylated ADDLs (bADDLs). Described as above. Here is the method:
as §4

The target in assay [17] is T2, Aβ-derived diffusible ligands (ADDLs), …. Kind of assay: three-pronged sandwich ELISA (Aβ forms captured by polyclonal M90/1), single antibody concentration; signal on ADDLs over signal on fibrillar Aβ. Here is the method: as §3
The target is the same in assay [18]. Kind of assay: one-sided ELISA (FIG. 7A). How it is done:
as §2

The target in assay [19] is T3, biotinylated ADDLs (bADDLs). As to the kind of experiment: cell-based assay: antibody pre-incubated with 500 nM bADDLs, block of bADDL binding to primary neurons. Here is the method: as §1
For assay [20], the target named is T4, Aβ1-40 monomer. Kind of assay: ELISA on coated antigen, chemiluminescence; antibody stored at 25°, 1 month. Here is the method:
as §4

The target of assay [21] is T3, biotinylated ADDLs (bADDLs). The description is as above. How it is done:
as §4

Assay [22] concerns the target T4, Aβ1-40 monomer. Kind of assay: one-sided ELISA, Aβ1-40 coated at 100 pmol/well (FIG. 7A). Here is the method:
as §2

Assay [23] deals with T4, Aβ1-40 monomer. As to the kind of experiment: KINEXA, equilibrium constant in solution.
In assay [24] the target is T2, Aβ-derived diffusible ligands (ADDLs), …. As to the kind of experiment: KINEXA, equilibrium constant in solution.

B1: anti-ADDL antibody 19.3 (antibody, V domains shown)
VH: EVQLVESGGGLVQPGGSLRLSCAASGFTFSSFGMHWVRQAPGKGLEWVAYISRGSSTIYYADTVKGRFTISRDNAKNSLYLQMNSLRAEDTAVYYCARGITTALDYWGQGTLVTVSS
VL: DVVMTQSPLSLPVTPGEPASISCRSSQSIVHSNGNTYLEWYLQKPGQSPQLLIYKASNRFSGVPDRFSGSGSGTDFTLKISRVEAEDVGVYYCFQGSRLGPSFGQGTKLEIKR
notes: copies: 2 + 2
In the case of B1, the EC50 in assay [1] was 0.018 µM; in [2] it was 0.0008 µM; in assay [6] it was roughly 0.0017 µM; in [8], 0.0163 µM; in [9] it was 0.0017 µM; in assay [12] it was 0.0888 µM. The EC50 was 0.0059 µM in assay [13]; 0.0101 µM in assay [15]; 0.0011 µM in assay [16]; 0.0221 µM in assay [20]; 0.0021 µM in assay [21]; roughly 0.0043 µM in assay [22]. The IC50 in assay [3] is 0.0153 µM; in assay [19] it was 0.0154 µM. In [4], the “fold higher concentration of Aβ1-40 than of Aβ oligomers needed to displace 50% of 19.3” value was roughly 600 fold. The “Ratio (Aβ monomer/ADDL)” value was determined as 6.2 in assay [5] and 31 in assay [14]. Besides, the “ADDL:Monomer binding ratio” value in assay [7] stood at 2.5. Also, the Kd in [10] amounted to 0.15 µM; in [11], 0.0048 µM; in assay [23] it was 0.0167 µM; in assay [24], 0.0027 µM. The “ADDL:Fibrillar binding ratio” value in assay [17] was determined as 2. Besides, the “fold greater potency for Aβ oligomers than for Aβ40 monomer” value in assay [18] is roughly 3.7 fold.

B2: antibody 19.3 N33T (antibody, IgG2, V domains shown)
VH: EVQLVESGGGLVQPGGSLRLSCAASGFTFSSFGMHWVRQAPGKGLEWVAYISRGSSTIYYADTVKGRFTISRDNAKNSLYLQMNSLRAEDTAVYYCARGITTALDYWGQGTLVTVSS
VL: DVVMTQSPLSLPVTPGEPASISCRSSQSIVHSTGNTYLEWYLQKPGQSPQLLIYKASNRFSGVPDRFSGSGSGTDFTLKISRVEAEDVGVYYCFQGSRLGPSFGQGTKLEIL
notes: also called 19.3T33
For B2, the 50% effective concentration (EC50) was 0.244 µM in assay [1]; 0.0031 µM in assay [2]; 0.307 µM in assay [8]; 0.0116 µM in [9]; 0.0963 µM in assay [12]; 0.0235 µM in assay [13]. The EC50 in [15] is 0.332 µM; in assay [16], 0.0155 µM; in assay [21], 0.0157 µM.

B3: humanized anti-ADDL antibody h3B3 (antibody, V domains shown)
VH: EVQLVESGGGLVQPGGSLRLSCAASGFTFSSFGMHWVRQAPGKGLEWVAYISRGSSTIYYADTVKGRFTISRDNAKNSLYLQMNSLRAEDTAVYYCARGITTALDYWGQGTLVTVSS
VL: DVVMTQSPLSLPVTPGEPASISCRSSQSIVHSNGNTYLEWYLQKPGQSPQLLIYKASNRFSGVPDRFSGSGSGTDFTLKISRVEAEDVGVYYCFQGSHVPPTFGQGTKLEIK
notes: Parental humanized antibody; also called humanized 3B3; h3B3 (parental)
Take B3: the Kd in [10] was found to be 0.105 µM; in assay [23], 0.045 µM.

B4: antibody 19.3 N33D (antibody, V domains shown)
VH: EVQLVESGGGLVQPGGSLRLSCAASGFTFSSFGMHWVRQAPGKGLEWVAYISRGSSTIYYADTVKGRFTISRDNAKNSLYLQMNSLRAEDTAVYYCARGITTALDYWGQGTLVTVSS
VL: DVVMTQSPLSLPVTPGEPASISCRSSQSIVHSDGNTYLEWYLQKPGQSPQLLIYKASNRFSGVPDRFSGSGSGTDFTLKISRVEAEDVGVYYCFQGSRLGPSFGQGTKLEIL
notes: Made as a control
Turning to B4, the EC50 was 0.028 µM in assay [1] and 0.00082 µM in assay [2].

B5: antibody 19.3 N33S (antibody, IgG2, V domains shown)
VH: EVQLVESGGGLVQPGGSLRLSCAASGFTFSSFGMHWVRQAPGKGLEWVAYISRGSSTIYYADTVKGRFTISRDNAKNSLYLQMNSLRAEDTAVYYCARGITTALDYWGQGTLVTVSS
VL: DVVMTQSPLSLPVTPGEPASISCRSSQSIVHSSGNTYLEWYLQKPGQSPQLLIYKASNRFSGVPDRFSGSGSGTDFTLKISRVEAEDVGVYYCFQGSRLGPSFGQGTKLEIL
notes: also called 19.3S33
As for B5, the concentration for a half-maximal effect (EC50) in assay [1] amounted to 0.15 µM; in assay [2] it was 0.0017 µM; in assay [8], 0.0591 µM; in assay [9] it was 0.0086 µM; in [12], 0.0299 µM; in [13], 0.0101 µM. Moreover, the EC50 stood at 0.0551 µM in [15], 0.0078 µM in [16], 0.0243 µM in assay [20] and 0.0128 µM in assay [21].
